Laboratory results reported in US20250144213A1 (UTC THERAPEUTICS SHANGHAI, published 2025).

Molecular target: T1, CD40-Fc recombinant protein (human, UniProt P25942 21-193)
T1 construct: Soluble staining reagent; also called CD40-Fc protein; not shown: Fc part
Assay: FACS staining of T cells expressing the anti-CD40 scFv-CD28 fusion with CD40-Fc protein (FIG. 64)

T1 sequence (P25942 21-193 limits assumed): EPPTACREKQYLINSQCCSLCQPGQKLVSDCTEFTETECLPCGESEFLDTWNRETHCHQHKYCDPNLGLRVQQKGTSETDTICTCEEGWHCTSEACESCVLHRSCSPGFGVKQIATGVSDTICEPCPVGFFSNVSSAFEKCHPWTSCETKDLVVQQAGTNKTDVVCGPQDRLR

Row | binding result | Binder
1 | binds | anti-CD40 scFv 40-47 (in LACOSTIM 40-47.28) (scFv, Tested on T cells as part of the LACOSTIM 40-47.28 (scFv fused with CD28), co-electroporated with the anti-Her2 CAR 4D5.BBZ; also called 40-47 scFv) scFv: QSALTQPASVSGSPGQSITISCTGTSSDVGAYNYVSWYQQLPGKTPKLMIYDVTNRPSGVSNRFSGSKSGNTASLTISGLQAEDEAYYYCGSYTTSSTLIFGGGTELTVLGGGGSGGGGSGGGGSEVHLVESGGGLVQPGGSLRLSCAASGFTFSSNWMSWVRQAPGKGLEWVANINQDGSEKYYVDSVKGRFTISRDNAKNSLYLQLNSLRAEDTAEYYCARGGYRYAYWGQGTLVTVSS
2 | binds | anti-CD40 scFv 40-52 (in LACOSTIM 40-52.28) (scFv, Tested on T cells as part of the LACOSTIM 40-52.28 (scFv fused with CD28), co-electroporated with the anti-Her2 CAR 4D5.BBZ; also called 40-52 scFv) scFv: QSALTQPPSASGSPGQSVTISCTGTSSDVGAYNFVSWYQQHPGNAPKLIIYDVRKRPSGIPDRFSASKSGNTASLTVSGLQADDEADYYCSSYAGNNNLVFGGGTKLTVLGGGGSGGGGSGGGGSQVQLVQSGAEVKKPGSSVKVSCKASGGTFSSYAISWVRQAPGQGLEWMGMINPSGGTTSYAQKFQGRVTMTRDTSTSTVYMELSSLRPEDTAVYYCARGFRMDQWGQGTLVTVSS
